Results on one substance are retold here after PMC12731782.

This experiment deals with N-terminally GFP-tagged mouse ClC-3c (mouse). Kind of experiment: FRET or BRET; FLIM-FRET (phasor analysis of the donor lifetime) in living SH-SY5Y cells transfected with the IRES construct; GFP on ClC-3 as donor, mCherry on ClC-4 as acceptor; regions of interest at the plasma membrane or intracellular areas of intermediate fluorescence; tauD from cells expressing only the donor.
Sequence of N-terminally GFP-tagged mouse ClC-3c (mouse) (P51791 whole entry): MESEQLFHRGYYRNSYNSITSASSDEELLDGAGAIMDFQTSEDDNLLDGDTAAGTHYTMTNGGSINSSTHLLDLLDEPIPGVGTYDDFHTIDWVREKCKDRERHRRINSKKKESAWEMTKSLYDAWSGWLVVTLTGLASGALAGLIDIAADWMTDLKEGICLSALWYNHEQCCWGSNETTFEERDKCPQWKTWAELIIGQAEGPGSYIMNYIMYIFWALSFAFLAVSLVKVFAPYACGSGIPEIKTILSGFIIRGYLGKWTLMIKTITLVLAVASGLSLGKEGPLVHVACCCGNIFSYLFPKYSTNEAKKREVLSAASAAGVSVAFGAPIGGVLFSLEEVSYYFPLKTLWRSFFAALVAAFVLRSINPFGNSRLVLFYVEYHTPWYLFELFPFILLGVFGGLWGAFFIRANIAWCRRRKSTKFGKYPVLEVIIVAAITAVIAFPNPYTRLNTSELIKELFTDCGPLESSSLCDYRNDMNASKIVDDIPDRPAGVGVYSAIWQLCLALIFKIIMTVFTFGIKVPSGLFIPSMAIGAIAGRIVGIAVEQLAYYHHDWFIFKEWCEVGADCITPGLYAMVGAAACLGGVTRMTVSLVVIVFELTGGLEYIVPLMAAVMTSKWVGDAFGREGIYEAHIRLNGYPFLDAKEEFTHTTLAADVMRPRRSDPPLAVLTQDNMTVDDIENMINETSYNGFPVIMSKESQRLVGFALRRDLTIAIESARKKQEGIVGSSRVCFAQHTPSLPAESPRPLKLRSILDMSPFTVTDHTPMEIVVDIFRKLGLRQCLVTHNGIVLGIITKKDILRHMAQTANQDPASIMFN

As to “N-terminally mCherry-tagged human ClC-4 (from UniProt P51793 1-760) (natural protein)”, the donor fluorescence lifetime in the presence of the acceptor (τDA; unquenched donor τD = 2.22ns) was determined as 1.89 ns.
